Nme2Cas9 (Neisseria meningitidis strain De10444/De11444 Cas9), recombinant purified protein
in vitro cleavage of a target DNA by Cas9-sgRNA (10:1 ratio of Acr:Cas9) (AcrE2): Nme2Cas9 efficiently cleaves a target containing a protospacer with an N4CC PAM in the presence of AcrE2 and AcrIIC5Smu | in vitro cleavage of a target DNA by Cas9-sgRNA (10:1 Acr:Cas9 molar ratio) (AcrIIC1Nme): Acrs IIC1Nme, -IIC2Nme, -IIC3Nme and -IIC4Hpa inhibited Nme2Cas9 gene editing activity | in vitro cleavage of a target DNA by Cas9-sgRNA (10:1 Acr:Cas9 molar ratio) (AcrIIC2Nme): Acrs IIC1Nme, -IIC2Nme, -IIC3Nme and -IIC4Hpa inhibited Nme2Cas9 gene editing activity | in vitro cleavage of a target DNA by Cas9-sgRNA (10:1 Acr:Cas9 molar ratio) (AcrIIC3Nme): Acrs IIC1Nme, -IIC2Nme, -IIC3Nme and -IIC4Hpa inhibited Nme2Cas9 gene editing activity | in vitro cleavage of a target DNA by Cas9-sgRNA (10:1 Acr:Cas9 molar ratio) (AcrIIC4Hpa): Acrs IIC1Nme, -IIC2Nme, -IIC3Nme and -IIC4Hpa inhibited Nme2Cas9 gene editing activity | in vitro cleavage of a target DNA by Cas9-sgRNA (10:1 Acr:Cas9 molar ratio) (AcrIIC5Smu): AcrIIC5Smu did not inhibit Nme2Cas9 in vitro even at 10-fold excess

SmuCas9 (Simonsiella muelleri Cas9)
Type II-C Cas9 ortholog cleavage tested for sensitivity to anti-CRISPR proteins (certain anti-CRISPRs): all three Type II-C Cas9 orthologs are inhibited by certain anti-CRISPRs

Nme1Cas9-Nme2Cas9PID chimera
in vitro cleavage by the Nme1Cas9-Nme2Cas9PID chimera in the presence of Acr (AcrIIC5Smu): no inhibition by AcrIIC5Smu on this protein chimera was observed
